In publication PMC6787221 one finds KD data, which are given here for one substance.

The target of assay [1] is STAM2 UIM-SH3 with the linker shortened by 14 amino acids (human). In words: NMR titration; 1H-15N HSQC chemical shift perturbation of 15N-labelled US-WT, US-Δ1, US-Δ2 upon addition of unlabelled Lys63-Ub2 until saturation; 15 °C, 20 mM sodium phosphate pH 6.8, 10% D2O, 0.02% NaN3; 2:1 model (each domain interacts with one unit of Lys63-Ub2).
The target of assay [2] is STAM2 UIM-SH3 with the linker shortened by 7 amino acids (human). The description is as above.

In general, KD refers to the constant that tells how readily two partners part at equilibrium. As for “Lys63-linked diubiquitin (from UniProt P0CG48 1-76) (complex)”, the results for the KD at the SH3 domain in assay [1] and in assay [2] were 483 µM and 253 µM, respectively.
